Consider 6 molecules from publication PMC8690919 (Theranostics, 2022).

The labels stand for the following.
B1: FD-5D human monoclonal antibody (IgG1) (antibody, V domains shown)
VH: EVQLVESGGGLVQPGGSLRLSCAASGFTFSSYSMNWVRQAPGKGLEWVSYISSSSSTIYYADSVKGRFTISRDNAKNSLYLQMNSLRAEDTAVYYCASPGGITAAGTSVLFGYYGMDVWGQGTTVTVSS
VL: not shown
notes: source: ExpiCHO cells, purified (MabSelect SuRe, desalted)
B2: EY-6A human monoclonal antibody (IgG1) (antibody, V domains shown)
VH: EVQLVESGGGVVQPGRSLRLSCAASAFTFSSYDMHWVRQAPGKGLEWVAVISYDGSNKYYADSVKGRFTISRDNSKNTLYLQMNSLRAEDTAVYYCAKDGGKLWVYYFDYWGQGTLVTVSS
VL: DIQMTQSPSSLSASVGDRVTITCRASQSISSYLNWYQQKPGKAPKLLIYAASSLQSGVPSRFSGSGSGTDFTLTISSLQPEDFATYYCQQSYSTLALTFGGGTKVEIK
B3: REGN10933 monoclonal antibody (antibody, V domains shown)
VH: QVQLVESGGGLVKPGGSLRLSCAASGFTFSDYYMSWIRQAPGKGLEWVSYITYSGSTIYYADSVKGRFTISRDNAKSSLYLQMNSLRAEDTAVYYCARDRGTTMVPFDYWGQGTLVTVSS
VL: DIQMTQSPSSLSASVGDRVTITCQASQDITNYLNWYQQKPGKAPKLLIYAASNLETGVPSRFSGSGSGTDFTFTISGLQPEDIATYYCQQYDNLPLTFGGGTKVEIK
notes: as for B1
B4: REGN10987 monoclonal antibody (antibody, V domains shown)
VH: QVQLVESGGGVVQPGRSLRLSCAASGFTFSNYAMYWVRQAPGKGLEWVAVISYDGSNKYYADSVKGRFTISRDNSKNTLYLQMNSLRTEDTAVYYCASGSDYGDYLLVYWGQGTLVTVSS
VL: QSALTQPASVSGSPGQSITISCTGTSSDVGGYNYVSWYQQHPGKAPKLMIYDVSKRPSGVSNRFSGSKSGNTASLTISGLQSEDEADYYCNSLTSISTWVFGGGTKLTVL
notes: also called REGN10977 (as printed once)
B5: FD-11A human monoclonal antibody (IgG1) (antibody, V domains shown)
VH: EVQLVESGGGVVQPGRSLRLSCAASGFTFSSYGMHWVRQAPGKGLEWVAVIWYDGSNKYYADSVKGRFTISRDNSKNTLYLQMNSLRAEDTAVYYCAKGPDILTGYYNYYYYGMDVWGQGTMVTVSS
VL: QSVLTQPPSVSGAPGQRVTISCTGSSSNIGAGYDVHWYQQLPGTAPKLLIYGNSNRPSGVPDRFSGSKSGTSASLAITGLQAEDEADYYCQSYDSSLSGFYVVFGGGTKLTVL
B6: FI-3A human monoclonal antibody (IgG1) (antibody, V domains shown)
VH: EVQLLESGGGLIQPGGSLRLSCAASGFTVSSNYMSWVRQAPGKGLEWVSVIYSGGSTYYADSVKGRFTISRDNSKNTLYLQMNSLRAEDTAVYYCARDHVRPGMNIWGQGTMVTVSS
VL: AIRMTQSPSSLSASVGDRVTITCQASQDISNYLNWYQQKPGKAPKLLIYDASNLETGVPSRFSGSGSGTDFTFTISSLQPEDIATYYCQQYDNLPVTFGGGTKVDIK

The first test concerns the target RBD-VLP (SARS-CoV-2, UniProt P0DTC2). The test can be described thus: ELISA. To be noted: both partners purified. For orientation: An ELISA detects its analyte on a solid surface through an enzyme-linked reagent.
Take B1: the binding result is “binds”.
Regarding B2, the binding result is “binds”.
On the same count and under the same terms, for B3 the value was “binds”.
B4: the binding result was “binds”.
On to B5, for which the binding result was “binds”.
Turning to B6, the binding result is “binds”.

A further test has as its target T1, SARS-CoV-2 spike protein (Wuhan strain), full length, expressed on MDCK cells (SARS-CoV-2, UniProt P0DTC2).
T1 construct: source: MDCK-SIAT1 cells stably transfected (lentiviral vector), on cells
Nature of the test: flow cytometry on cells. Particulars: one partner purified. A general note: A flow cytometer gives signals particle by particle.
With B2, the binding result is on record as “binds”.
For the molecule B5, the binding result is on record as “binds”.
In the case of B6, the binding result was “binds”.
